Measured values reported in the supplement of paper PMC12042874.
± gives the uncertainty stated by the source.

test: amyloid nucleation score (Sup35N fusion, yeast selection) (log enrichment); library NNK2; higher = more nucleation; inactive = no reads after selection
In short: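 Sup35N fusions to peptides of 20 random codons were expressed in psi-negative yeast, induced 24 hours with 100 μM copper sulfate, and grown 7 days at 30°C on medium lacking adenine and uracil. Input and output plasmid inserts were sequenced by Illumina. The nucleation score is the DiMSum log enrichment of output over input reads, centred on the mode score of non-aggregating sequences. Sequences with under 100 input reads were excluded.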

Row | Substance | amyloid nucleation score
1 | CSPCFLSCGPYNNGPE | 7.537 ± 0.074
2 | CSSENLSLLIYSIKVGNGF | 3.28 ± 0.12
3 | CSWLLTH | -0.461 ± 0.48
4 | CSYVDRTLGSNLWVVRSNSQ | 0.737 ± 0.51
5 | CSYVNRLWVDSSVGHEEDAG | inactive
6 | CTAHYYCQGCWTSRMLNLTA | -0.116 ± 0.47
7 | CTAYYCDVSLNYVVRYNFPL | inactive
8 | CTFKFMAVQFCG | 5.46 ± 0.073
9 | CTFSRMSVFACILANQSVFY | 7.861 ± 0.038
10 | CTHHKCVWGIWSTFSVDSEL | -0.288 ± 1.1
11 | CTHWLDPDFVL | -0.666 ± 0.79
12 | CTIVYF | 1.13 ± 0.27
13 | CTLLFTLSYSVS | 4.245 ± 0.037
14 | CTLVFKGLGCKSVELGGTFC | -0.564 ± 0.61
15 | CTMWVDVCLSCDHMRYDNGG | 5.96 ± 0.093
16 | CTSLLI | -0.545 ± 0.48
17 | CTSLRYFCARFELLSAHSKW | 0.199 ± 0.4
18 | CTSYTEDFLWCFHNVTWKVR | 0.105 ± 0.8
19 | CVAVDDD | 0.624 ± 0.46
20 | CVFAHFCCLFASMMPCKFSW | -0.127 ± 1
21 | CVFKVVPLVL | 0.005 ± 1
22 | CVFLHSALSQYRVIIVTWYP | -0.237 ± 0.63
23 | CVFRHTVIYGLGAGW | 2.65 ± 0.14
24 | CVHIKEVLAWLDRCGLGYVW | 0.662 ± 0.81
25 | CVILDWSVVCFMELVINSRS | 3.21 ± 0.065

Row | Substance | amyloid nucleation score
26 | CVKDQSSRRRWLIYWAHSLS | -0.145 ± 0.76
27 | CVLMTALNLRKRSVGMPFCW | 4.67 ± 0.077
28 | CVLSLNTGTASWITHVWKLY | 0.349 ± 0.5
29 | CVNYYVYANHRRISYWW | -0.337 ± 1.1
30 | CVVEQALLLWN | -0.243 ± 0.79
31 | CVVTSVIENGFFLQFIMFYQ | inactive
32 | CVYRASIVRSRSNYEAVWYS | 0.341 ± 0.24
33 | CVYWWASGE | inactive
34 | CWCSLRRFTMLCNMRMNWDN | 1.91 ± 0.086
35 | CWVAYERSHTFRPKNQFFMH | 1.02 ± 0.53
36 | CYFSLQNSKDMRDLELDAIN | -1.46 ± 0.55
37 | CYGRIM | 1.74 ± 0.099
38 | CYNLCCLPFCGVNLMFWLQV | 7.992 ± 0.033
39 | CYRHVLFKATLKWCNFAVFI | 7.383 ± 0.046
40 | CYRVVTLFNFK | 6.178 ± 0.029
41 | CYSLWRFEQMKLGMKLRGMT | 0.003 ± 0.43
42 | DAAEISGLCLYDFLTGDLEQ | 2.27 ± 0.12
43 | DAHTMIGRYTDSSLRHRTWV | 1.05 ± 0.3
44 | DALQSSFTTLLLYNAIEDVY | -0.317 ± 0.35
45 | DAWRFSTNSLHSTAYYYYFL | 5.781 ± 0.043
46 | DCARERYKLYNRLHWPSLSS | 0.474 ± 0.26
47 | DCDVSVNSVYITVKSAICAV | 0.767 ± 0.66
48 | DCFSYSHLRGACNVECLFYP | -0.645 ± 1.1
49 | DCISRY | 1 ± 0.68
50 | DCLIRIVQSTGVYVRWQGRA | 4.35 ± 0.086

Row | Substance | amyloid nucleation score
51 | DCLNRLY | 0.138 ± 0.76
52 | DCWWYRLDSMYDLTYLGIGR | -1.03 ± 0.63
53 | DDHLCSFLRFFTNKRKRA | 4.67 ± 0.09
54 | DDRCATSNIHLLLHPLCTYL | 0.754 ± 0.37
55 | DDSNCNNHGRVDDKVR | 4.9 ± 0.038
56 | DDVKDNVYGSVEALKPRSG | 0.467 ± 0.17
57 | DDYRMVIVVT | -0.307 ± 0.33
58 | DESICCQEVGNSRVDSDEGR | 2.94 ± 0.12
59 | DETNGTGSRVRLVRRYER | 0.946 ± 0.27
60 | DEWPWAVPSGVSRGCAGSVY | 0.231 ± 0.32
61 | DFDRSMRIARDNKRYGPVLV | -0.166 ± 1.1
62 | DFFYTYGGIYGYWSFRHGIV | -1.24 ± 0.62
63 | DFGREVVVIPLSEV | 0.323 ± 0.53
64 | DFGYYREIHDEEECSCLKVY | -0.981 ± 0.78
65 | DFLNWEDFCIMSECWNSTVQ | inactive
66 | DFYGYRKDFFLEQCPACSLY | -1.38 ± 0.78
67 | DFYLFQG | 0.228 ± 0.56
68 | DGASIFSSAFIVGSGTLKQM | -0.911 ± 0.78
69 | DGFRGLGLFHTY | -0.561 ± 0.31
70 | DGFYCL | 0.019 ± 1.1
71 | DGISFSAKSSSYSDASLRMR | 1.62 ± 0.097
72 | DGKMNPVSAY | inactive
73 | DGKNYVKTNSNGIRNGMSIW | -0.576 ± 0.76
74 | DGKVSC | inactive
75 | DGNAVCDILLLTSIMVSVSA | -0.551 ± 0.54

Row | Substance | amyloid nucleation score
76 | DGPIPLLSGMGHGGRYLWCV | 1.01 ± 0.18
77 | DGPLSLNSIHFTWLRAMDKV | -0.297 ± 1.1
78 | DGSNIFLLV | -0.482 ± 0.56
79 | DGVSHC | 0.02 ± 0.79
80 | DHCMMLRFN | 0.716 ± 0.6
81 | DHFGGCYMSATRSWHDFKMG | inactive
82 | DHSEYSVITKFVLHRSCSQG | 8.451 ± 0.067
83 | DIMVERGAFIGLKAD | 5.41 ± 0.068
84 | DIVIDRNMSLWDPFNIVPFE | -0.27 ± 0.79
85 | DIVMCFLGRHHQSTEAGLSM | 4.49 ± 0.056
86 | DIWPNDLGYVFVLSA | -0.218 ± 0.53
87 | DKRGF | inactive
88 | DKVDLSA | 0.053 ± 1.1
89 | DKYSIVSSGPYMSNKSLVRR | -0.109 ± 0.79
90 | DLDVN | -0.214 ± 0.56
91 | DLEIPFLKRKG | -0.349 ± 0.6
92 | DLFNRNIVVCSLFLGYMVTI | 2.99 ± 0.092
93 | DLGGMP | -0.501 ± 0.48
94 | DLGHTYTSMYGFLTPSRDVD | -0.052 ± 0.5
95 | DLVRYFC | 4.26 ± 0.055
96 | DMDRCLGY | 0.812 ± 0.2
97 | DMNVVYTVCRVKARDCERDY | 5.322 ± 0.041
98 | DMTVLYCMFCSLSWQINCFR | 0.838 ± 0.25
99 | DMWTSFWSCSTYRKEYFTRC | 1.25 ± 0.11
100 | DMYLRIS | inactive

Row | Substance | amyloid nucleation score
101 | DNCLTGIEWI | -1.83 ± 1
102 | DNCRYVKRSSYSRVCAHYKS | -0.627 ± 0.41
103 | DNILICMYGDVYMGCYCQAI | 8.632 ± 0.05
104 | DNVGYYNINKDLKFIVGSSH | 0.274 ± 1.1
105 | DRAVLRGVVSDNSV | 0.439 ± 0.74
106 | DRFVWVADTWWSRRNNAAFG | 4.16 ± 0.054
107 | DRQTATSEMVSNRLISFRLV | 0.145 ± 0.19
108 | DRRELRHDDAVVAYIDVVIE | 1.05 ± 0.28
109 | DRRRK | 1.43 ± 0.23
110 | DRYNHKSSMIREVRLLIASY | -0.123 ± 0.76
111 | DRYYVFLILWTRGNTRRPTG | -1.02 ± 0.39
112 | DSDKLHDRDVVWNWGRGLYR | 0.399 ± 0.23
113 | DSEHYVMWLKWYLLFLTYTH | -0.307 ± 0.3
114 | DSFLKKCSLIRIQVRAVFVL | -1.14 ± 1
115 | DSIYVL | -0.831 ± 0.44
116 | DSLFIACVSLF | -0.26 ± 0.63
117 | DSLPSRNSNIGWIQWILWGI | -0.121 ± 1.1
118 | DSSMFYVIGLL | -0.626 ± 0.79
119 | DSSVSAPMSSFDRWTTHCVL | 0.373 ± 0.43
120 | DSWFRPVLNFPCSRNANKSL | 1.95 ± 0.25
121 | DSYGSFVKLMTVSVYMKGVF | inactive
122 | DTALFYSNNVMTSKVGAQKS | -0.003 ± 1.1
123 | DTMRYLAGYLMACWPVEWSG | 0.685 ± 0.22
124 | DVCMPIKKSITITTATVRVY | -0.545 ± 0.63
125 | DVGSCVRGYTGQSKNLWTYG | 0.028 ± 0.79

Row | Substance | amyloid nucleation score
126 | DVRPDLNDKSRTVDSDVLLC | -0.846 ± 0.78
127 | DVSVNRARFPREF | 1.1 ± 0.17
128 | DVVEDF | -0.02 ± 0.49
129 | DVVKNLYSSGLGLSTCMLYI | -0.95 ± 0.55
130 | DWVINS | -0.462 ± 0.78
131 | DWWLLYNCRSRMMGIKADPL | inactive
132 | DWWLNGLFP | inactive
133 | DYAIVSGVLLTQMQQLMCFV | 0.466 ± 0.33
134 | DYILLARYSRNVHCS | -0.343 ± 0.37
135 | DYITCQFYLTVFELSCCMSC | 7.932 ± 0.047
136 | DYLYCSAQFRHMRVQSPGNA | 0.885 ± 0.2
137 | DYMNGDKSKKGDYWIMSVNS | 0.154 ± 0.65
138 | DYNFIQRNNCGALCKYAKTL | -1.55 ± 0.62
139 | DYVSGYRVGQFVMLLGRLRN | -0.205 ± 0.55
140 | EACVISNGISILL | -0.54 ± 0.35
141 | EAHILRLYMLSRLSGIVHMV | 0.434 ± 0.56
142 | EARVSDSVFGLVVVKTMCYV | 5.535 ± 0.043
143 | EASKGHISTVLWLGGVIS | -0.352 ± 0.65
144 | ECRFKDTATRFRQSLRFYNM | inactive
145 | ECSRSINYLRLVLNLE | 0.708 ± 0.34
146 | ECVLMTGTMWSTSSALW | 0.877 ± 0.53
147 | EDEWMHLVRVQFQGKDRKAA | 0.92 ± 0.28
148 | EEMMFPFAFVFFICSFRNRL | 2.9 ± 0.065
149 | EEMMSRYSLTVKML | 0.391 ± 0.34
150 | EEVVVVWFIRDKDLALKLVV | inactive

Row | Substance | amyloid nucleation score
151 | EEWSYVDSEPSIRFSRIQDV | -0.516 ± 0.42
152 | EEWYHADVSCVHRKIPNATR | 0.644 ± 0.81
153 | EFCIPKNLRSW | 0.182 ± 0.22
154 | EFIEYTSFYWWNLLRLGVHS | -0.61 ± 0.23
155 | EFIMTCAQVPRTFDVHSNRS | 6.479 ± 0.054
156 | EFKHSLIVASARRRNDFGYR | 0.224 ± 0.43
157 | EFLRRD | 0.055 ± 0.26
158 | EFNLLRYSVETNIISEKKLV | 0.129 ± 0.54
159 | EFQGVS | 0.343 ± 0.64
160 | EFQIMFVFHWT | inactive
161 | EFSFHSWQLVTSCQEECCLD | inactive
162 | EGCMSFFKRSQYATDQDLGA | -0.24 ± 0.39
163 | EGFEFCWINNMDWSMPWVTN | 5.08 ± 0.062
164 | EGFHGRMCHEHGKVLKAID | 0.178 ± 0.24
165 | EGLLHTYCICGFLVYHYMEV | 3.77 ± 0.054
166 | EGNRNEVSFYVMFSAVPSGL | 9.221 ± 0.059
167 | EGRCNYTGHMFCRYLCKHYT | -0.088 ± 1.1
168 | EGTFGAPFVTSLLSLRFECV | -0.85 ± 0.63
169 | EIIYSQSDSVYGCGGY | inactive
170 | EKWLGLFKTYAESFDSCCLG | -0.581 ± 0.29
171 | ELCTKAINVMN | 0.433 ± 0.48
